Laboratory results from patent US20240294632A1 (XL PROTEIN, published 2024).
Changes are numbered by the printed parent chain.

Assays:
[1] = biological target: P/A#1(600)-GMCSF; assay: ELISA, Fab titrated on P/A#1(600)-GMCSF (x axis: Fab concentration)
[2] = biological target: T1, PAS #1(200)-IL1Ra; assay: SPR, biotinylated antigen on CAPture chip, Fab as analyte, 1:1 model
T1 construct: PASylated fusion protein produced in E. coli; Biotinylated for the SPR measurements with Fabs

[3] = biological target: T2, P/A #1(200)-IL1Ra; assay: as above
T2 construct: PASylated fusion protein produced in E. coli; Biotinylated for the SPR measurements with Fabs

[4] = biological target: T3, P/A #1(600) polypeptide; assay: ELISA, antigen coated, Fab titrated
T3 chain: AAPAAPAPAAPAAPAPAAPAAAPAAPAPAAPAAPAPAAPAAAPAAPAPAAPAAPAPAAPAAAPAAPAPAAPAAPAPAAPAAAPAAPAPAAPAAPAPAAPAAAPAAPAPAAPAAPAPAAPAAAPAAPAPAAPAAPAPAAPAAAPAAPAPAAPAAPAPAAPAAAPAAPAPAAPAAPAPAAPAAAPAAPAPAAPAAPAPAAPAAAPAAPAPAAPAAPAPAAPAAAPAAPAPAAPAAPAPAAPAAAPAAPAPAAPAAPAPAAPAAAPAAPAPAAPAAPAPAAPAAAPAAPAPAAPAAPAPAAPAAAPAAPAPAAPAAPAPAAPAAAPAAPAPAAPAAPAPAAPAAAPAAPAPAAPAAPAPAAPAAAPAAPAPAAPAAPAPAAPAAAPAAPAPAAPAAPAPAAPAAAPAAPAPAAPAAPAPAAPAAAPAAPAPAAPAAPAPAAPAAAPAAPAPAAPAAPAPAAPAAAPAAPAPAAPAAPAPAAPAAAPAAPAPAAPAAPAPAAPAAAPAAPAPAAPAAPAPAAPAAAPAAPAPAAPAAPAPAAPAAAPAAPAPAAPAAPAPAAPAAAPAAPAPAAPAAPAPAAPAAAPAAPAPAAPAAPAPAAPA

[5] = biological target: T4, PAS #1(600)-Leptin; assay: ELISA, antigen coated, Fab titrated
T4 chain: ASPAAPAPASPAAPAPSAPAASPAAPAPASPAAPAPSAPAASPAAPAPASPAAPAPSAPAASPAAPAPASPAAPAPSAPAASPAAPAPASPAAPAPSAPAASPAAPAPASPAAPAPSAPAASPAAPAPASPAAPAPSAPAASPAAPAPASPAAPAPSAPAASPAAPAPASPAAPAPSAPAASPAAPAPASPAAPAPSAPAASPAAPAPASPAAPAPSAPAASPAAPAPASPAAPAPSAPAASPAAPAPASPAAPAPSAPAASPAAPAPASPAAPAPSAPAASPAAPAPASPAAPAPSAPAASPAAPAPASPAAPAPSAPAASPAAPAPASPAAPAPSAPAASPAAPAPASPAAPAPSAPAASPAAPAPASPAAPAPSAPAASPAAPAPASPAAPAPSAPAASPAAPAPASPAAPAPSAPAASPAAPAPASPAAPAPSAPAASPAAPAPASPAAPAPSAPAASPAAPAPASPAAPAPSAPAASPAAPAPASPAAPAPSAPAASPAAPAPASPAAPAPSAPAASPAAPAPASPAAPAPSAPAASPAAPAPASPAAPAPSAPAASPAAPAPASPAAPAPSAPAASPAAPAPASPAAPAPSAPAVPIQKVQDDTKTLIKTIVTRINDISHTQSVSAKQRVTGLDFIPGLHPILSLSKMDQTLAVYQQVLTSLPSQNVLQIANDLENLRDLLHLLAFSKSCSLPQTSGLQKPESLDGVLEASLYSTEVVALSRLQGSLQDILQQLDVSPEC

[6] = biological target: IL1Ra-PAS#1(800); assay: ELISA, Fab titrated on IL1Ra-PAS#1(800) (x axis: Fab concentration)
IL1Ra-PAS#1(800), sequence (chain, as listed by the source): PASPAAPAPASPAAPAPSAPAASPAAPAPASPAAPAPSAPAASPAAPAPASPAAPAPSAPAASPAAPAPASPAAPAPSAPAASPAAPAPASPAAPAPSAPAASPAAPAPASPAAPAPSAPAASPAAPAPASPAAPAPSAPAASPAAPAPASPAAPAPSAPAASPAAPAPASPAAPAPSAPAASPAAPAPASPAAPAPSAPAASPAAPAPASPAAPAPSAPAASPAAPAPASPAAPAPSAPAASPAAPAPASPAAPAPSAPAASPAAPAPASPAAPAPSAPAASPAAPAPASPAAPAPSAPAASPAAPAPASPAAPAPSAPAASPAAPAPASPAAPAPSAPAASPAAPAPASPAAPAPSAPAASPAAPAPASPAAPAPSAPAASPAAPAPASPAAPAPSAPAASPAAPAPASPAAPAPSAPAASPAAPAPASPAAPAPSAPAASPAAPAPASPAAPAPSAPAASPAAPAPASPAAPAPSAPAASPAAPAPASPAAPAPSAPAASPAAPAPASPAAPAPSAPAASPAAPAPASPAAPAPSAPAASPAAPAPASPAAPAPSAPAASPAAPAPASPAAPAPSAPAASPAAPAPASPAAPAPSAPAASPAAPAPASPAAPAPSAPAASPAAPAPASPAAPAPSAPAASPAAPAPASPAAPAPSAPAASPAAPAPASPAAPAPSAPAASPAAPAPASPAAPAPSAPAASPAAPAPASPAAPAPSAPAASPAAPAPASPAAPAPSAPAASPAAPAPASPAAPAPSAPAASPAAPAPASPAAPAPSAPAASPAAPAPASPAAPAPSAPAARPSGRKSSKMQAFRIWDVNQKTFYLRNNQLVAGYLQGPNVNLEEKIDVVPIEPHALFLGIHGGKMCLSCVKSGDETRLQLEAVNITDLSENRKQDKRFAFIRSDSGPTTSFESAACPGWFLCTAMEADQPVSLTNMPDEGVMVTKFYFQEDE

[7] = biological target: T4, PAS #1(600)-Leptin; assay: ELISA, Fab titrated on PAS#1(600)-Leptin (x axis: Fab concentration)
[8] = biological target: T5, IL1Ra (Kineret/Anakinra) (UniProt P18510 26-177); assay: western blot, hybridoma supernatant 1:2000
T5 construct: Commercial drug product; also called non-PASylated protein version
T5 sequence (P18510 26-177 limits assumed): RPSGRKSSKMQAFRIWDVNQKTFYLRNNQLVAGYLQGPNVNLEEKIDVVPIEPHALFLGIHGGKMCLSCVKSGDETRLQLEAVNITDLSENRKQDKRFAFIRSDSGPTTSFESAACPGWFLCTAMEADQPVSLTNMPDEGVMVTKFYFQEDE

[9] = biological target: T6, hu4D5-P/A #1(200); assay: MAb capture ELISA, hybridoma supernatant on anti-mouse IgG Fc, antigen titrated
T6 construct: Detected with anti-human kappa light chain antibody in the capture ELISA

[10] = biological target: T1, PAS #1(200)-IL1Ra; assay: SPR, MAb from hybridoma supernatant captured by anti-mouse antibody, antigen as analyte, bivalent analyte model
[11] = biological target: T2, P/A #1(200)-IL1Ra; assay: as above
[12] = biological target: T7, APSA(200)-TrxA; assay: SPR, biotinylated antigen on CAPture chip, Fab as analyte, 1:1 model
T7 construct: Biotinylated and immobilised on a biotin CAPture chip; also called thioredoxinA-APSA(200)

[13] = biological target: T8, APSA(200)-IL1Ra; assay: ELISA, antigen coated, Fab titrated
T8 construct: Fusion protein produced in E. coli; Labelled with DIG-NHS in the MAb capture ELISA

[14] = biological target: T8, APSA(200)-IL1Ra; assay: MAb capture ELISA, hybridoma supernatant on anti-mouse IgG Fc, DIG-labelled antigen titrated
[15] = biological target: T9, hu4D5-PAS #1(200); assay: MAb capture ELISA, hybridoma supernatant on anti-mouse IgG Fc, antigen titrated
T9 construct: Detected with anti-human kappa light chain antibody in the capture ELISA

[16] = biological target: T8, APSA(200)-IL1Ra; assay: SPR, MAb from hybridoma supernatant captured by anti-mouse antibody, antigen as analyte, bivalent analyte model
[17] = biological target: T10, recombinant Galectin-3 carrying a C173T mutation and a C-terminal Strep-tag II (Homo sapiens (Human), UniProt P17931 2-250); assay: SPR, PAS-Fab captured by MAb 1.1, Galectin-3 as analyte, single cycle kinetics, 1:1 Langmuir model
T10 construct: the wording would also allow that it is the Strep-tag II alone
T10 sequence (P17931 other isoform, or with tags, fused parts or gaps C173T C173T limits assumed): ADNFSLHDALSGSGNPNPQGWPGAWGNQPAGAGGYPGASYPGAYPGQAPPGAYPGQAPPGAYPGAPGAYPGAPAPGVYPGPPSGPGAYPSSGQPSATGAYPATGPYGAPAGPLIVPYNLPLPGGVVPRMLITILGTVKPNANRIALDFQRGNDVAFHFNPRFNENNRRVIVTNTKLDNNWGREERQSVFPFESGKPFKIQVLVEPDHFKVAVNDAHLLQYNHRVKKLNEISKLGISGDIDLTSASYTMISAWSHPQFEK

[18] = biological target: T4, PAS #1(600)-Leptin; assay: ELISA, Fab titrated on coated PAS#1(600)-Leptin
[19] = biological target: T11, P/A #1 sequence; assay: ELISA and SPR with Fabs
T11 construct: in sentences on specificity it stands for P/A #1 polypeptides in general
T11 peptide: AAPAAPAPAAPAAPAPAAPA

T1 sequence (chain, as listed by the source limits assumed): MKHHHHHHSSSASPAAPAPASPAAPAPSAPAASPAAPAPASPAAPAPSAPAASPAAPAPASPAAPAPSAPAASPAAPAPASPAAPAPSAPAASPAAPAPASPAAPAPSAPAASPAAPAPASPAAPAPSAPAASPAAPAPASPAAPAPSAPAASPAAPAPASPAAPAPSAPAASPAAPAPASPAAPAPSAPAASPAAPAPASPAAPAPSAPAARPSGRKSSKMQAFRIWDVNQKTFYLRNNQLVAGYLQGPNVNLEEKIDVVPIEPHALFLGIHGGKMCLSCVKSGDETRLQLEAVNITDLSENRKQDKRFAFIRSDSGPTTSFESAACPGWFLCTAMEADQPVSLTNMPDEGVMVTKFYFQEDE
P/A#1(600)-GMCSF, sequence (fusion protein, as listed by the source): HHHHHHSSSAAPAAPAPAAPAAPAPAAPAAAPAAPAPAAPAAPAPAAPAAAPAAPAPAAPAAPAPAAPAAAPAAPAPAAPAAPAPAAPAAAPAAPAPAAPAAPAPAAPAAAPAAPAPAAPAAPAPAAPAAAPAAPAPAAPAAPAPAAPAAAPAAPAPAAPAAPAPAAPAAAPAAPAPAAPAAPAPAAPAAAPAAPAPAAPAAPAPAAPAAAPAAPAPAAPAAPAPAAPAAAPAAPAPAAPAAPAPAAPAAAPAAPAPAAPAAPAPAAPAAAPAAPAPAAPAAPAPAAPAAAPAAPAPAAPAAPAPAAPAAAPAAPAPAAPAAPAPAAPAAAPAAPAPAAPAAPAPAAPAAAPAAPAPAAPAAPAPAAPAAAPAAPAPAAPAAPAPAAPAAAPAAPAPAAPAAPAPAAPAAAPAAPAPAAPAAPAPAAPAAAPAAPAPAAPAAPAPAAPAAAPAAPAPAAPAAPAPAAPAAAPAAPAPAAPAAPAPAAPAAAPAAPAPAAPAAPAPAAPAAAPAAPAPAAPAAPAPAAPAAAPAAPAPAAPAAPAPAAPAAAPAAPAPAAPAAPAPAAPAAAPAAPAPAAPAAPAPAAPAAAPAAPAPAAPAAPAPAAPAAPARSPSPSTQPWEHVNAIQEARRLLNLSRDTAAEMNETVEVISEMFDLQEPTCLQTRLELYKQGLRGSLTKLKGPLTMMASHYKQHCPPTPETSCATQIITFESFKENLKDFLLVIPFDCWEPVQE

B1: Fab fragment of Anti-PA(S) MAb 2.1 (Fab, V domains shown)
VH: QVTLKESGPGILQPSQTLSLTCSFSGFSLSTYDMGVGWIRQPSGKGLEWLANIWWNDNKYYNSALKSRLTISKDTSNNQVFLKISSVDATDTATYYCAQMRDNYGVWFAFWGQGTLVTVSA
VL: DIVMSQSPSSLAVSVGEKVTMSCKSSQSLFYSNREKNYLAWYQQKPGQSPKLLIYWASTRESGVPDRFTGSGSGTDFTLTISNVKAEDLAVYYCQQYYNYPTFGAGTKLELKR
notes: also called Anti-PA(S) MAb 2.1 Fab; anti-P/A #1 Fab
- EC50 (read off the curve) [1]: ~1 nM
- Kd [2]: 4.4 nM
- Kd [3]: 648 nM
- Kd [4]: 2 nM
- Kd [5]: 2.2 nM
- EC50 (read off the curve) [6]: ~2 nM
- EC50 (read off the curve) [7]: ~2 nM

B2: Fab fragment of Anti-PA(S) MAb 2.2 (Fab, V domains shown)
VH: QVTLKESGPGILQPSQTLSLTCSFSGFSLNTYGMGVGWIRQPSGKGLEWLANIWWTDDKYYNSVLKSRLTISKDTFNNQVFLKISSVDTADTATYYCAQLAYHDNPWFAYWGQGTLVTVSA
VL: B1 VL with M21L, F30L, R34N, E35Q, N83S, A105G, L111I
notes: also called Anti-PA(S) MAb 2.2 Fab; anti-P/A #1 MAb 2.2 Fab
- Kd [3]: 7000 nM
- Kd [4]: 8 nM

B3: Anti-PA(S) MAb 2.2 (antibody, V domains shown)
VH: B2 VH
VL: B1 VL with M21L, F30L, R34N, E35Q, N83S, A105G, L111I
notes: Mouse monoclonal IgG from hybridoma (culture supernatant); also called 3F3E2
- binding result [8]: no binding
- Kd [9]: 69 nM
- Kd [10]: 22 nM
- Kd [11]: 1.1 nM

B4: Fab fragment of Anti-PA(S) MAb 3.2 (Fab, V domains shown)
VH: QVQLQQSGAELVRPGASVKLSCKALGYTFTDYEMFWVKQTPVHGLECIGTIHPGSGGTAYNQKFKGKATLTADKSSSTAYMELSSLTSEDSAVYYCTRNDRGSWGQGTTLTVSS
VL: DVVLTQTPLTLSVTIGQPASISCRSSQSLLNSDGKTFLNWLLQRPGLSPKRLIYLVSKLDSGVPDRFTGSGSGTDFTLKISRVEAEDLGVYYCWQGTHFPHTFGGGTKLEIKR
notes: also called Anti-PA(S) MAb 3.2 Fab; anti-APSA antibody fragment
- Kd [12]: 137 nM
- Kd [3]: 446 nM
- Kd [4]: 48 nM
- Kd [13]: 1.6 nM
- Kd [5]: 311 nM

B5: Anti-PA(S) MAb 3.2 (antibody, V domains shown)
VH: B4 VH
VL: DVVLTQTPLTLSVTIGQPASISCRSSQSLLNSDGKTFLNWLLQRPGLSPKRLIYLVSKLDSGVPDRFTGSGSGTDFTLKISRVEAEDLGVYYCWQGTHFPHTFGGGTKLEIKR
notes: Mouse monoclonal IgG from hybridoma (culture supernatant)
- binding result [8]: no binding
- Kd [14]: 0.251 nM
- Kd [15]: 294 nM
- Kd [9]: 0.4 nM
- Kd [16]: 0.108 nM
- Kd [11]: 20 nM

B6: anti-Galectin-PAS(200) Fab fragment (Fab)
chain 1: QIQLVQSGAEVKKPGESLKISCKVSGYTFTDYAIHWVRQMPGKGLKWMGWINTYTGKPIYADDFKGQVIISLDKSINTAYLQWSSLKASDTAIYYCARGTMMASLDYWGQGTTVTVSSASTKGPSVFPLAPSSKSTSGGTAALGCLVKDYFPEPVTVSWNSGALTSGVHTFPAVLQSSGLYSLSSVVTVPSSSLGTQTYICNVNHKPSNTKVDKKVEPKSCHHHHHH
chain 2: DVVMTQSPSSLSASVGDRVTITCKSSQSLVHSDGKTYLSWIQQKPGKAPKGLIYLVSKLDSGVPSRFSGSGSETDFTLTISSLQPEDSATYYCWQATHFPLTFGPGTKLEIKRTVAAPSVFIFPPSDEQLKSGTASVVCLLNNFYPREAKVQWKVDNALQSGNSQESVTEQDSKDSTYSLSSTLTLSKADYEKHKVYACEVTHQGLSSPVTKSFNRGECASPAAPAPASPAAPAPSAPAASPAAPAPASPAAPAPSAPAASPAAPAPASPAAPAPSAPAASPAAPAPASPAAPAPSAPAASPAAPAPASPAAPAPSAPAASPAAPAPASPAAPAPSAPAASPAAPAPASPAAPAPSAPAASPAAPAPASPAAPAPSAPAASPAAPAPASPAAPAPSAPAASPAAPAPASPAAPAPSAPAA
notes: also called PASylated humanized anti-Galectin Fab fragment; PAS-Fab
- Kd [17]: 0.0038 nM
- koff [17]: 3e-05 s⁻¹
- kon [17]: 7.9e+06 M⁻¹ s⁻¹

B7: Fab fragment of Anti-PA(S) MAb 1.1 (Fab, V domains shown)
VH: QVQLKESGPGLVAPSQSLSITCTVSGFSLTGYGVNWVRQPPGKGLEWLGMIWGDGITDYNSALKSRLSISKDNSKSQVFLKMNSLQTDDTARYYCARDYYGRRYYAMDYWGQGTSVTVSS
VL: DIVLTQSPASLAVSLGQRATISCRASKSVSSSGYNYMFWYQQKPGQPPKLLIYLASNLESGVPDRFWGSGSGTDFTLNIHPVEEEDAATYYCQHSRELPLTFGAGTKLELKR
notes: flanking restriction sites were introduced for subcloning; also called Anti-PA(S) MAb 1.1 Fab; anti-PAS #1 Fab
- Kd [2]: 8800 nM
- Kd [5]: 23 nM
- EC50 (read off the curve) [18]: ~10 nM
- binding result [19]: no binding
